Reference: patent publication US20190367592A1 (AC IMMUNE, published 2019)
Residue numbers refer to the chain shown, from its start.

B1: hu37D3.v28.F2 (antibody, V domains shown)
VH: EVQLVESGGGLVQPGGSLRLSCAASGLIFRSYGMSWVRQAPGKGLEWVATINSGGTYTYYPDSVKGRFTISRDNSKNTLYLQMNSLRAEDTAVYYCANSYSGAMDYWGQGTLVTVSS
VL: DDVLTQTPLSLPVTPGQPASISCRSSQSIVHTNGNTYFEWYLQKPGQSPQLLIYKVSNRFSGVPDRFSGSGSGTDFTLKISRVEAEDVGVYYCFQGSLVPWTFGQGTKVEIK
B2: hu37D3.v28.A14 (antibody, V domains shown)
VH: B1 VH
VL: B1 VL with L4M, T32S, F38L, L98H
B3: hu37D3.v28.A20 (antibody, V domains shown)
VH: B1 VH
VL: B1 VL with D2V, T32S, F38L
B4: hu37D3.v28.A10 (antibody, V domains shown)
VH: B1 VH
VL: B1 VL with L4M, T32S, L98H
B5: hu37D3.v28.A26 (antibody, V domains shown)
VH: B1 VH
VL: B1 VL with D2V, L4M, T32S, L98H
B6: hu37D3.v28.A28 (antibody, V domains shown)
VH: B1 VH
VL: B1 VL with D2V, L4M, T32S, F38L
B7: hu37D3.v28.A24 (antibody, V domains shown)
VH: B1 VH
VL: B1 VL with D2V, L4M, T32S
B8: hu37D3.v28.A16 (antibody, V domains shown)
VH: B1 VH
VL: B1 VL with D2V, T32S
B9: hu37D3.v28.A18 (antibody, V domains shown)
VH: B1 VH
VL: B1 VL with D2V, T32S, L98H
B10: hu37D3.v28.A22 (antibody, V domains shown)
VH: B1 VH
VL: B1 VL with D2V, T32S, F38L, L98H
B11: hu37D3.v28.A8 (antibody, V domains shown)
VH: B1 VH
VL: B1 VL with L4M, T32S
B12: hu37D3-H9.v30.5 (antibody, V domains shown)
VH: B1 VH
VL: B1 VL with T32S, N33I
B13: hu37D3.v29.12 (antibody, V domains shown)
VH: B1 VH
VL: B1 VL with D1E, T32S, G34A, N35H
B14: hu37D3-H9.v30.10 (antibody, V domains shown)
VH: B1 VH
VL: B1 VL with T32S, N33K
B15: hu37D3.v29.1 (antibody, V domains shown)
VH: B1 VH
VL: B1 VL with D1E, T32S, N35D
B16: hu37D3.v29.6 (antibody, V domains shown)
VH: B1 VH
VL: B1 VL with D1E, T32S, N35K
B17: hu37D3.v29.7 (antibody, V domains shown)
VH: B1 VH
VL: B1 VL with D1E, T32S, N35L
B18: hu37D3.v29.4 (antibody, V domains shown)
VH: B1 VH
VL: B1 VL with D1E, T32S, N35A
B19: hu37D3.v28.F3 (antibody, V domains shown)
VH: B1 VH
VL: B1 VL with G34A
B20: hu37D3-H9.v30.11 (antibody, V domains shown)
VH: B1 VH
VL: B1 VL with T32S, N33R
B21: hu37D3-H9.v5.1 (antibody, V domains shown)
VH: B1 VH
VL: B1 VL with D1E, T32S, G34A
B22: hu37D3.v29.5 (antibody, V domains shown)
VH: B1 VH
VL: B1 VL with D1E, T32S, N35H
B23: hu37D3.v29.3 (antibody, V domains shown)
VH: B1 VH
VL: B1 VL with D1E, T32S, N35E
B24: hu37D3.v29.9 (antibody, V domains shown)
VH: B1 VH
VL: B1 VL with D1E, T32S, G34A, N35Q
B25: hu37D3.v29.13 (antibody, V domains shown)
VH: B1 VH
VL: B1 VL with D1E, T32S, G34A, N35K
B26: hu37D3.v29.11 (antibody, V domains shown)
VH: B1 VH
VL: B1 VL with D1E, T32S, G34A, N35A
B27: hu37D3.v29.10 (antibody, V domains shown)
VH: B1 VH
VL: B1 VL with D1E, T32S, G34A, N35E
B28: hu37D3.v29.14 (antibody, V domains shown)
VH: B1 VH
VL: B1 VL with D1E, T32S, G34A, N35L

target: T1, recombinant human Tau monomer, 2N4R isoform (amino acids 2-441) (human, UniProt P10636-8 2-441); experiment: SPR, captured IgG, Tau monomer analyte, 1:1 model; fit-quality column: Yes
T1 construct: range 2-441; N-terminal His-tag removed with TEV protease; also called monomeric Tau
Description: (§1) Briefly, IgGs in 1 mL culuture were captured using tip columns that were custom packed with 20 μL MabSelect SuRe resin (Glygen Corp & GE Healthcare). After washing with 1×PBS pH 7.4, IgGs were eluted into 160 μL of 50 mM phosphoric acid pH 3 and neutralized with 12 μL of 20×PBS pH 11. MabSelect SuRe tip columns were stripped in 0.1 M NaOH and regenerated with 1×PBS pH 7.4 for consecutive use of up to 15 times. Purified antibodies in 96-well format were normalized to 0.1 mg/ml using a Hamilton Star liquid handling robot. The “pre-stress” samples were kept at approximately 4° C. and the “post-stress” samples were incubated at 40° C. for two weeks in a PCR machine. Functional stability of the variants was compared by running surface plasmon resonance kinetics experiments with the “pre-stress” and “post-stress” antibody preps. The antibodies were assessed using a human antibody capture CM5 Series S chip generated using the GE Biacore human IgG capture kit and a Biacore T200 instrument. Antibodies diluted to 2 μg/ml were immobilized using a 15 second injection time and 10 μl/min flow rate. Binding to Tau monomer at 0 nM, 26.5 nM and 265 nM, at 25° C., using a flow rate of 40 μl/min, was monitored for a 180 second association phase followed by a 300 second dissociation phase. Samples were run in 10 mM HEPES pH7.4, 150 mM NaCl, 0.05% Tween 20 (HBSP) using a multi-cycle kinetics format. Data was analyzed using BIAevaluation software, fitting a 1:1 binding model. The resulting affinity (KD) values are shown in FIG. 8A-D. A Stability Index was also calculated, using the rationale that affinity-compromised antibodies (due for example to deamidation of key residues) are expected to contribute equally to the IgG capture level (“Ligand Level”) but to contribute less to the measured Tau binding, and that this would be reflected in the experimentally derived value for Rmax. To account for variations in the amount of each antibody captured, Rmax was normalized for the antibody capture level (as measured by “Ligand Level”, Response Units immobilized during antibody capture). Thus Normalized Rmax is calculated as the experimental Rmax (units=RU) divided by the “Ligand Level” (Evaluation output representing the RU captured during the hIgG capture step, units=RU), and Stability Index is calculated here as Normalized Rmax (post-stress) divided by Normalized Rmax (pre-stress).

T1 sequence (P10636 other isoform, or with tags, fused parts or gaps limits assumed): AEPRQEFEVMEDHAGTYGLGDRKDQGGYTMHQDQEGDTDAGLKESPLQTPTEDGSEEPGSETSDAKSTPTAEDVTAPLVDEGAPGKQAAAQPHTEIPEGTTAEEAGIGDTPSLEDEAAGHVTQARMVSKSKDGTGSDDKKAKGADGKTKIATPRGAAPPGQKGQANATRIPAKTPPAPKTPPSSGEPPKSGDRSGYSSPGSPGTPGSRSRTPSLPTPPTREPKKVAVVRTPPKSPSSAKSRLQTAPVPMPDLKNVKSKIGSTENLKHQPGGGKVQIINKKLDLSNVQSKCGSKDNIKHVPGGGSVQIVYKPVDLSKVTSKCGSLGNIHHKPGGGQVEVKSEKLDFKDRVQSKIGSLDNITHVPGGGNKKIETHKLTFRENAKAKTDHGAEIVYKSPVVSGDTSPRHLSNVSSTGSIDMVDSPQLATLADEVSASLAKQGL

Kd | Binder
1.9 nM | B1
51.4 nM | B2
7.1 nM | B3
41.8 nM | B4
22.5 nM | B5
11.4 nM | B6
4.7 nM | B7
3.9 nM | B8
17.3 nM | B9
27.8 nM | B10
1.8 nM | B11
29.1 nM | B12
7 nM | B13
16.1 nM | B14
13.5 nM | B15
1.4 nM | B16
4.6 nM | B17
4.9 nM | B18
9.5 nM | B19
20.9 nM | B20
4 nM | B21
1.4 nM | B22
5.6 nM | B23
7.3 nM | B24
6.7 nM | B25
27.9 nM | B26
17.4 nM | B27
22 nM | B28

target: T1, recombinant human Tau monomer, 2N4R …; experiment: SPR; Normalized Rmax post-stress (2 weeks 40 C) / pre-stress
Description: as §1

Stability Index | Binder
51% | B1
70% | B2
93% | B3
37% | B4
78% | B5
89% | B6
95% | B7
89% | B8
83% | B9
70% | B10
57% | B11
80% | B12
50% | B13
84% | B14
70% | B15
62% | B16
90% | B17
76% | B18
70% | B19
86% | B20
72% | B21
64% | B22
93% | B23
86% | B24
79% | B25
67% | B26
100% | B27
92% | B28
